IntAct's records for PubMed 11733528

B1: Early protein (Human adenovirus C serotype 5 (HAdV-5)), P03255-2 (parent)
chain: MRHIICHGGVITEEMAASLLDQLIEEVLADNLPPPSHFEPPTLHELYDLDVTAPEDPNEEAVSQIFPDSVMLAVQEGIDLLTFPPAPGSPEPPHLSRQPEQPEQRALGPVSMPNLVPEVIDLTCHEAGFPPSDDEDEEGPVSEPEPEPEPEPEPARPTRRPKMAPAILRRPTSPVSRECNSSTDSCDSGPSNTPPEIHPVVPLCPIKPVAVRVGGRRQAVECIEDLLNEPGQPLDLSCKRPRP
partner: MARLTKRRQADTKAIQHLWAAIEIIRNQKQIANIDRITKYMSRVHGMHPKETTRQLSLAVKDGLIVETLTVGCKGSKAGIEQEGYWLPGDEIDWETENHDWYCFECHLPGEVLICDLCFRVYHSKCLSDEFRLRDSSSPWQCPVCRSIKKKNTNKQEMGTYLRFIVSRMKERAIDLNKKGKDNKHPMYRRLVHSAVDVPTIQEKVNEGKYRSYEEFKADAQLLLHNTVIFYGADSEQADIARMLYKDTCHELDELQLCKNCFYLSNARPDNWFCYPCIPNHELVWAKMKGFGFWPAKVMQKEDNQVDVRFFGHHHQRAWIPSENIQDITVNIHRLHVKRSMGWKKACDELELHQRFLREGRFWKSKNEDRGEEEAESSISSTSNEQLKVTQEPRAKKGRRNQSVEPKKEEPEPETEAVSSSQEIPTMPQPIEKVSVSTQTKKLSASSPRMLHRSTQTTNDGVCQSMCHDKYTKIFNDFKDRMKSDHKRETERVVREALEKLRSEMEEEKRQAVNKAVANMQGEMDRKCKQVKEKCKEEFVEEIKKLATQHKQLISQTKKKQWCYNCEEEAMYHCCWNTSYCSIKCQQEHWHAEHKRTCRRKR

Variants of: B1
Details: with zmy11_human ZMYND11, Q15326

| Variant | effect of a mutation on the interaction |
| --- | --- |
| L115A | disrupting interaction |
